Article PMC6914384 (Nature, 2018)
No end group written: not given here.

Biological target: T1, p300 BRP (Homo sapiens, UniProt Q09472)
T1 sequence (Q09472 1048-1282): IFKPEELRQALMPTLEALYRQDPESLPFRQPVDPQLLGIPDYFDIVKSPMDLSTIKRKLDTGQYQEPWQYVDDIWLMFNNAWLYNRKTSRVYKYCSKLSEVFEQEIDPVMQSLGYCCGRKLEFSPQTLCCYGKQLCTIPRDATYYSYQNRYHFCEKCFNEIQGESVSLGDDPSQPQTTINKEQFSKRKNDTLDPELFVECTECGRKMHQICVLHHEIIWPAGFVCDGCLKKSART
Assay: ITC of histone and AIL peptides with p300 BRP
Format: binding
Conditions: p300 BRP module; for Binding by ITC, result in words (printed in column N): Kd cell prints --

Row | Substance | Binding by ITC, result in words (printed in column N) | Kd (μM) (mean and s.d. of experiments in triplicate)
1 | AIL K1549K1558K1560tri-ac (1545-1562): p300 autoinhibitory loop peptide 1545-1562 acetylated on K1549, K1558, K1560 (SKNAK(Ac)KKNNKKTSK(Ac)NK(Ac)SS) | No binding | –
2 | H3 K4me3 (1-20): histone H3 peptide 1-20, K4me3 | No binding | –
3 | H3 K9ac (1-20): histone H3 peptide 1-20, K9ac | No binding | –
4 | H3 S10pho (1-20): histone H3 peptide 1-20, S10 phosphorylated | No binding | –
5 | H4 K5ac (4-24): histone H4 peptide 4-24, K5ac | No binding | –
6 | H4 K16ac (4-24): histone H4 peptide 4-24, K16ac | No binding | –

Next, values leading:

Row | Binding by ITC, result in words (printed in column N) | Kd (μM) (mean and s.d. of experiments in triplicate) | Substance
7 | No binding | – | ARTKQTQRKSTGGKAPRKQL [H3 unmodified (1-20)]
8 | No binding | – | H3 K4me1 (1-20): histone H3 peptide 1-20, K4me1
9 | – | large | H3 K18ac (1-20): histone H3 peptide 1-20, K18ac
10 | No binding | – | H3T11pho (1-20): histone H3 peptide 1-20, T11 phosphorylated
11 | No binding | – | SKNAKKKNNKKTSKNKSS [AIL (1545-1562)]
